Test results from patent CN115960228A (UNIV XUZHOU MEDICAL, dated 2023).

Molecular target: T1, CD19 protein on the cell surface (细胞表面的CD19蛋白) (human, UniProt P15391 20-556)
T1 construct: whole, on cells; also called 人CD19
T1 sequence (looked up): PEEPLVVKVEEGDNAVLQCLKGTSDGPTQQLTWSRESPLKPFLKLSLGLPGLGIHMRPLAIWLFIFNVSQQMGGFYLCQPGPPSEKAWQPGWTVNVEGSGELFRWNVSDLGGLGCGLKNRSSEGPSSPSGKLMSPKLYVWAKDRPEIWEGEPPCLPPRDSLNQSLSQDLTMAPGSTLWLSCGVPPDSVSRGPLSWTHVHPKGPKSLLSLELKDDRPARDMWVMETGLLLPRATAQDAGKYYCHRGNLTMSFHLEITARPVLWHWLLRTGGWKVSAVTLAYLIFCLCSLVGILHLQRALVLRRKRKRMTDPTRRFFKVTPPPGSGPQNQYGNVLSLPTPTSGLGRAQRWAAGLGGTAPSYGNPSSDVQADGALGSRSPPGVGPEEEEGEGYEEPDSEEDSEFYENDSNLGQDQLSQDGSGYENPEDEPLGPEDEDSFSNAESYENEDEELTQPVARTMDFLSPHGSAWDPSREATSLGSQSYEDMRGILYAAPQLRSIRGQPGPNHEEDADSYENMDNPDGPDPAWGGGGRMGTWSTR
Test: flow cytometry on cells; antibody purified from cell supernatant or ascites, compared with hybridoma supernatant

binding result: binds
B1: CD19-6E1B8抗体 (anti-human CD19 monoclonal antibody, clone 6E1B8) (antibody, V domains shown)
VH: EVQLKESGPGLVAPSQSLSITCTVSGFSLTSHGVSWVRQPPGKGLEWLGVIWGDGRTSYHSALISRLSISKSDSKSQVFLKLNSLQTDDTATYYCAKKGAYYGSDYRYYAMDSWGQGTSVTVSS
VL: DIQLTQTPLSLPVSLGDQASISCRSSQSLVYSNGNTYLHWYLQKPGQSPKLLIYKASNRFSGVPDRFSGSGSGTDFTLKISRVEAEDLGVYFCSQSTHVPWTFGGGTKLEIKR
notes: It was purified on Protein G from ascites or from cell supernatant; also called CD19抗体; 抗CD19的单克隆抗体
